Measured values published in patent US20140155331A1 (published 2014).
Where no end group is shown, it is not given here. [ ]: non-standard residue; d: D form. Aib = CC(C)(N)C(=O)O

B1: S100B (other)
chain: MSELEKAMVALIDVFHQYSGREGDKHKLKKSELKELINNELSHFLEEIKEQEVVDKVMETLDNDGDGECDFQEFMAFVAMVTTACHEFFEHE

How the values were obtained:
pBDC-53 = test: fluorescence anisotropy
S100B = target: B1; test: fluorescence anisotropy

Kd (pBDC-53) [nM]	Kd (S100B) [nM]	Binder
267	–	B1
–	4600	fluorescein-QST[Aib]RH[Aib]KLMFKT[Aib]G [pBM-53 (Aib substituted p53 monomer peptide)]
–	32	fluorescein-TRTKIDW[Aib]KIL[Aib]GGGCG (not fully specified (residue 16); also: homodimer: two copies joined at Cys16 through BMH, linker at 16 via BMH, other end not in the chain) [pBDC-TRTK (pBM-TRTK dimerised with a properly designed crosslinker)]
